# Source: PMC2112703
# B1: depactin (actin-depolymerizing protein from starfish oocytes), P20690 1-150 (natural protein)
# chain: PQSGTALDENVKEEIRAFKMDQSKVKVPWMLLEIVQNDDRIDVVKVTKKAGPSDNLETLREELKQREVVYFVLDYEPSEEKRAKHNIPKGKTYPLTCFWSMETANIKLKMKYSSTVGTLKSATSTLKTYLEAHDFDDLSEEAIGDKIKNF
# Target: rabbit skeletal muscle actin (rabbit), P68135
# Assay: cross-linking
# Settings: remark: other sources report otherwise
binder,measurement,value
B1,stoichiometry N,1
